The source of these data is patent US20200150118A1.

The assay deals with T1, S100A9 (alarmin) in autologous bone marrow plasma of MDS patients (human) (UniProt P06702).
T1 sequence (looked up): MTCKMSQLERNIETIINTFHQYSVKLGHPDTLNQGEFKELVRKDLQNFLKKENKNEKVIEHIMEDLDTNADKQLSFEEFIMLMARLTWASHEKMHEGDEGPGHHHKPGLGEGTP
Briefly: cell-based or functional assay.

In the case of “S100A9 high-affinity chimeric (CD33-IgG1) decoy receptor (from UniProt P20138 18-259) (Fc fusion)”, the reduction of the fraction of pyroptotic cells, CD33+ cells (MDS BM-MNC in autologous BM plasma, flow cytometry) was 68%; the reduction of the fraction of pyroptotic cells, CD71+ cells (MDS BM-MNC in autologous BM plasma, flow cytometry) was found to be 64%; the reduction of the fraction of pyroptotic cells, progenitor cells (MDS BM-MNC in autologous BM plasma, flow cytometry) was 23%; the reduction of the fraction of pyroptotic cells, stem cells (MDS BM-MNC in autologous BM plasma, flow cytometry) was 44%.
